Assay results: patent publication JP2019218309A (dated 2019)
No end group written: not given here.

Columns and labels:
GIP(1−42) (active GIP) = target: T1, GIP(1−42) (active GIP); experiment: sandwich ELISA: anti-total GIP monoclonal antibody as capture, biotinylated m1 at 1 ug/mL as detection, GIP at 8.2-2000 pg/mL
T1 construct: a Human (total) GIP ELISA kit was used; also called 活性型GIP; GIP(1-42)
T1 peptide: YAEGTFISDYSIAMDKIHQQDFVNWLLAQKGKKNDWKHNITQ

GIP(3−42) (inactive GIP) = target: T2, GIP(3−42) (inactive GIP); experiment: sandwich ELISA: anti-total GIP monoclonal antibody as capture, biotinylated m1 at 1 ug/mL as detection
T2 construct: also called 非活性型GIP; 不活性型のGIP(3−42)
T2 peptide: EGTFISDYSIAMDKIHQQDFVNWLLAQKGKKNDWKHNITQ

[1] = target: T3, 測定用抗原(2): PEG化GIP(3−15) (PEGylated N-terminal 13 amino acids of inactive GIP) (also: PEGylated, site not given here); experiment: ELISA, immobilised PEGylated peptide, hybridoma culture supernatant
T3 construct: also called GIP(3-15)
T3 peptide: EGTFISDYSIAMD

[2] = target: T4, 測定用抗原(1): PEG化GIP(1−15) (PEGylated N-terminal 15 amino acids of active GIP) (also: PEGylated, site not given here); experiment: as above
T4 construct: also called GIP(1-15)
T4 peptide: YAEGTFISDYSIAMD

- binding result (GIP(1−42) (active GIP)): binds
- binding result (GIP(3−42) (inactive GIP)): no binding
- binding result [1]: no binding
- binding result [2]: binds
B1: ハイブリドーマ9B9H5−B9株から産生されるモノクローナル抗体 (anti-active GIP monoclonal antibody of hybridoma 9B9H5-B9) (antibody, V domains shown)
VH: QVQLQQPGAELVKPGASVKLSCKASGYTFTSFWMHWVIQRPGQGLEWIGEMNPSDGRTHFNEKFKTKATLTIDTSSNTAYMELNSLTSEDSAVYYCARRMEDWGQGTLVTVSA
VL: DIKMTQSPSSMYASLGERVTITCKASQDINSYLGWFQQKPGKSPKTLIYGANRLVDGVPSRFSGSGSGQDYSLTISSLEYDDMGIYYCLQYDEFPLTFGAGTKLELKR
notes: Mouse (BALB/c) hybridoma monoclonal antibody, purified on Protein A; also called 抗活性型GIP抗体; 抗活性型GIPモノクローナル抗体
